Results from article PMC4914320.

Target: Telomeric repeat binding factor 2 (TRF2), endogenous (human (endogenous in C1, UTC8505, RD and HEK293T cells))
Assay: proximity ligation; Duolink PLA in fixed, permeabilised C1 cells with antibodies to HMGA2 (D1A7), TRF2 and RAP1; a minimum of 30 nuclei quantified

PLA foci per nucleus (PLA foci per nucleus): 5
B1: High Mobility Group AT-hook protein 2 (HMGA2), endogenous (natural protein)
chain: MSARGEGAGQPSTSAQGQPAAPAPQKRGRGRPRKQQQEPTGEPSPKRPRGRPKGSKNKSPSKAAQKKAEATGEKRPRGRPRKWPQQVVQKKPAQEETEETSSQESAEED
